Residue numbers refer to the chain shown, from its start. Where two headings read alike, the source gives them in different places.
Assays:
Test in all cases: cell-based or functional assay
[1] = molecular target: T1, V5-, His-tagged recombinant human PCSK9 protein (human, UniProt Q8NBP7 31-692)
[2] = molecular target: T1, V5-, His-tagged recombinant human PCSK9 …; remark: listed apart in the source
[3] = molecular target: T1, V5-, His-tagged recombinant human PCSK9 …; remark: listed apart in the source
[4] = molecular target: T1, V5-, His-tagged recombinant human PCSK9 …; remark: listed apart in the source
[5] = molecular target: T1, V5-, His-tagged recombinant human PCSK9 …; remark: listed apart in the source

T1 sequence (Q8NBP7 31-692 limits assumed): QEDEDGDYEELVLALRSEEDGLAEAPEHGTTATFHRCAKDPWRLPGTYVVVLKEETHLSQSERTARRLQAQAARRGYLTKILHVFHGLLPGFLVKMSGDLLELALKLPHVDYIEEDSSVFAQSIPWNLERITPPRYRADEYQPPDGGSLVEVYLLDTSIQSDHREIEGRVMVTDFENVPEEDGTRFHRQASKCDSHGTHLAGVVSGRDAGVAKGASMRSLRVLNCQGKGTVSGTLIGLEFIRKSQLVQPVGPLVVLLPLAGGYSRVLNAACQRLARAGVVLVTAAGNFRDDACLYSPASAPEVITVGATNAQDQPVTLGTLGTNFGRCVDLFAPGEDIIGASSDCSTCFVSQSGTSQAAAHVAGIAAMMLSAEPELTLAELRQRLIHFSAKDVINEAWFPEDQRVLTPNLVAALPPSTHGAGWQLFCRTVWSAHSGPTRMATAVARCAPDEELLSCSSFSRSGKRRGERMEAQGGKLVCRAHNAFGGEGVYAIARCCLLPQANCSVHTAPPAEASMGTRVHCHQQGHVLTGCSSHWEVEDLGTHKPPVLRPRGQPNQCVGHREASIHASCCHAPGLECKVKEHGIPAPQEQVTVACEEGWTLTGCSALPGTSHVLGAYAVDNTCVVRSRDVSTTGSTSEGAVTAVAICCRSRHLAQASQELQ

B1: 3CX4B08 (Fab, V domains shown)
VH: QVQLVESGGGLVQPGGSLRLSCAASGFTFSNYTMNWVRQAPGKGLEWVSFISSSSSETYYADSVKGRFTISRDNSKNTLYLQMNSLRAEDTAVYYCARGYGDMVDLWGQGTLVTVSS
VL: DIELTQPPSVSVAPGQTARISCSGDSIPTYYVAWYQQKPGQAPVLVIYSDTDRPSGIPERFSGSNSGNTATLTISGTQAEDEADYYCQSFDNHGYHVFGGGTKLTVLG
IC50 for reversing the PCSK9-dependent loss of cellular diI-LDL uptake (Exopolar assay; Fab titrated against PCSK9 fixed at 25 µg/ml) [1]: 127 nM

B2: 1CX1G08 (Fab, V domains shown)
VH: QVQLVESGGGLVQPGGSLRLSCAASGFTFSDYWVSWVRQAPGKGLEWVSFISYDGSSTYYADSVKGRFTISRDNSKNTLYLQMNSLRAEDTAVYYCARTYFEGVDVWGQGTLVTVSS
VL: DIELTQPPSVSVAPGQTARISCSGDNIGTYYVHWYQQKPGQAPVLVIYDDSNRPSGIPERFSGSNSGNTATLTISGTQAEDEADYYCGTWDNTSFNLVFGGGTKLTVLG
IC50 for reversing the PCSK9-dependent loss of cellular diI-LDL uptake (Exopolar assay; Fab titrated against PCSK9 fixed at 25 µg/ml) [2]: 267 nM

B3: 3CX2A06 (Fab, V domains shown)
VH: QVQLVQSGAEVKKPGESLKISCKGSGYSFSNFWIAWVRQMPGKGLEWMGIIDPSDSWTRYSPSFQGQVTISADKSISTAYLQWSSLKASDTAMYYCARGDGQDFDNWGQGTLVTVSS
VL: DIQMTQSPSSLSASVGDRVTITCRASQNINSYLNWYQQKPGKAPKLLIYAASSLQSGVPSRFSGSGSGTDFTLTISSLQPEDFAVYYCLQNYDLPNTFGQGTKVEIKR
IC50 for reversing the PCSK9-dependent loss of cellular diI-LDL uptake (Exopolar assay; Fab titrated against PCSK9 fixed at 25 µg/ml) [3]: 107 nM

B4: 3CX3D02 (Fab, V domains shown)
VH: QVQLVQSGAEVKKPGESLKISCKGSGYSFTNSWIGWVRQMPGKGLEWMGIIYPSDSYTIYSPSFQGQVTISADKSISTAYLQWSSLKASDTAMYYCARGGGYYYALMDVWAQGTLVTVSS
VL: B3 VL with N28T, N30S, S31T, Y32W, V85T, N91D, Y92S, D93S, N96L
IC50 for reversing the PCSK9-dependent loss of cellular diI-LDL uptake (Exopolar assay; Fab titrated against PCSK9 fixed at 25 µg/ml) [4]: 269 nM

B5: 3BX5C01 (Fab, V domains shown)
VH: QVQLVQSGAEVKKPGESLKISCKGSGYSFTSYGISWVRQMPGKGLEWMGMIDPSDSFTTYSPSFQGQVTISADKSISTAYLQWSSLKASDTAMYYCARGYYFTYALQPMDHWGQGTLVTVSS
VL: DIELTQPPSVSVAPGQTARISCSGDNLRDYIVHWYQQKPGQAPVLVIYDDSNRPSGIPERFSGSNSGNTATLTISGTQAEDEADYYCGFDNGGDIDVFGGGTKLTVLG
IC50 for reversing the PCSK9-dependent loss of cellular diI-LDL uptake (Exopolar assay; Fab titrated against PCSK9 fixed at 25 µg/ml) [5]: 1250 nM
